Drawing on PMC10955041, “Reverse-engineering the anti-MUC1 antibody 139H2 by mass spectrometry–based de novo sequencing” (Life Science Alliance, 2024), this text covers binding result and Kd for 3 molecules.

Conditions in all cases: both partners purified
Test [1] has as its target T1, MUC1 reporter construct, Tn glycans (Homo sapiens (by repeat sequence), UniProt P15941, O-glycans of Tn structure; 5 O-glycosylation sites).
T1 construct: also called MUC1 Tn fragment; MUC1-Tn; source: engineered HEK293 cells, gift from Christian Büll (Copenhagen Center for Glycomics), in PBS
Nature of the test: far-Western, overlay or dot blot; immunoblot of MUC1 reporter constructs (10 ng per well, boiled in Laemmli buffer, 10% SDS gel, PVDF); 139H2 antibodies 1:1,000 in TSMT with 1% BSA, 1 h at RT; band intensities compared with a His-tag blot. On the technique in general: In western blotting, separated proteins are transferred to a membrane and probed.

The target of test [2] is T2, MUC1 reporter construct, STn glycans (Homo sapiens (by repeat sequence), UniProt P15941, O-glycans of STn structure; 5 O-glycosylation sites).
T2 construct: also called MUC1 STn fragment; MUC1-STn; source: engineered HEK293 cells, gift from Christian Büll (Copenhagen Center for Glycomics), in PBS
The test is described as above.

Test [3] addresses T3, MUC1 reporter construct, WT Core 2/ST glycans (Homo sapiens (by repeat sequence), UniProt P15941, O-glycans of WT Core 2/ST structure; 5 O-glycosylation sites).
T3 construct: also called MUC1 WT fragment; MUC1-WT; source: engineered HEK293 cells, gift from Christian Büll (Copenhagen Center for Glycomics), in PBS
Described as above.

Test [4] concerns the target T4, MUC1 reporter construct, DiST glycans (Homo sapiens (by repeat sequence), UniProt P15941, O-glycans of DiST structure; 5 O-glycosylation sites).
T4 construct: also called MUC1 DiST fragment; MUC1-DiST; source: engineered HEK293 cells, gift from Christian Büll (Copenhagen Center for Glycomics), in PBS
The description is as above.

Test [5] addresses T5, synthetic MUC1 epitope peptide APDTRPAPG (synthetic; human MUC1 VNTR sequence).
T5 construct: also called MUC1 peptide; source: synthetic peptide, bought: GenScript
T5 chain: APDTRPAPG
Nature of the test: crystal structure; Fab and peptide mixed 1:2.5, 3.8 mg/ml in 50 mM Tris pH 8.0, 150 mM NaCl; sitting drop at 20°C; 2.5 Å.

For test [6], the target named is T6, N-terminally biotinylated synthetic MUC1 peptide biotin-GGS-APDTRPAPG (synthetic; human MUC1 VNTR sequence).
T6 construct: short peptide linker for immobilization to the SPR substrate; occurs in every repeat; also called biotinylated MUC1 peptide; surface-immobilized MUC1 peptide; source: synthetic peptide, bought: GenScript
T6 chain: Biotin-GGSAPDTRPAPG
In words: SPR; biotinylated peptide immobilised on a streptavidin chip (P-Strep), IBIS-MX96; 150 mM NaCl, 25 mM Hepes, 0.005% Tween-20; Fab as analyte, 10 twofold dilutions from 7.88 uM, kinetic titration without regeneration, 6-min association; equilibrium data fitted to a one-site (Langmuir) model. Background: SPR reads the build-up and loss of mass on a sensor chip optically.

Ends that are not written are not given here. * marks the point of attachment. Biotin = O=C1N[C@H]2[C@H](CS[C@H]2CCCCC(=O)*)N1

T2 sequence (P15941 whole entry, looked up, the tested form may be a part): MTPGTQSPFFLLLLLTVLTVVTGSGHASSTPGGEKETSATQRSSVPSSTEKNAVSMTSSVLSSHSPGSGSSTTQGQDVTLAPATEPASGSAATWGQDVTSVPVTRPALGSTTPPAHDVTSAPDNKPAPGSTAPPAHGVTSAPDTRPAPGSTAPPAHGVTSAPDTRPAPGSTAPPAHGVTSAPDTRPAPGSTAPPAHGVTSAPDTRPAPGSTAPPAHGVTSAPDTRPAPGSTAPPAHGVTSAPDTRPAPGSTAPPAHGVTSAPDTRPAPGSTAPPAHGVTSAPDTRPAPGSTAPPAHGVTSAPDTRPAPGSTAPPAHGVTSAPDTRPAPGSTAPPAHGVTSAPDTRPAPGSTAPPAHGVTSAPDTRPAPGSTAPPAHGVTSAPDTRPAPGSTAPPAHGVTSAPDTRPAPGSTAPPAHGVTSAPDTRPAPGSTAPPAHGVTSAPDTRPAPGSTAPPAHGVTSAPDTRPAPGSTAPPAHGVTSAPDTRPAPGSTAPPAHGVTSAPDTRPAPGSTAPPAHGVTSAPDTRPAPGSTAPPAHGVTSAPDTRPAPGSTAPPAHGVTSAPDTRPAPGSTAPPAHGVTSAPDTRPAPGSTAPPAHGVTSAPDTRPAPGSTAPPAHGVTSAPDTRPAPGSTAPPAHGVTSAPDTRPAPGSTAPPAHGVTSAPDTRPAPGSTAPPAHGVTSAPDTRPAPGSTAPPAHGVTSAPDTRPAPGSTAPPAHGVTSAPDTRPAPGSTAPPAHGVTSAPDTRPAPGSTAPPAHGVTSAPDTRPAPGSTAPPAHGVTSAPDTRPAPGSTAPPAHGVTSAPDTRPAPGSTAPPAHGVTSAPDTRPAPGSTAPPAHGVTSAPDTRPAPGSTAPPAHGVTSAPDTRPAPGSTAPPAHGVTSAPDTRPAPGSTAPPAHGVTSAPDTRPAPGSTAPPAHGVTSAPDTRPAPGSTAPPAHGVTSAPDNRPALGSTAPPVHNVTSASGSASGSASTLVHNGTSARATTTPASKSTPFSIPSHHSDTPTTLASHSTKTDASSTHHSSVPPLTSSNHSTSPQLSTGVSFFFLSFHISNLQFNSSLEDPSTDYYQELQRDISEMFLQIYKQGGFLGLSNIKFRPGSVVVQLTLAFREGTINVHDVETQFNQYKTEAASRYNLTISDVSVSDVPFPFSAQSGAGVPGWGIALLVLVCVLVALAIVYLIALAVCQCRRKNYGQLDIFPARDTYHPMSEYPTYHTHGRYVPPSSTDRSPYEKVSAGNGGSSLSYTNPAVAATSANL
T3 sequence (P15941 whole entry, looked up, the tested form may be a part): as above
T1 sequence (P15941 whole entry, looked up, the tested form may be a part): as above
T4 sequence (P15941 whole entry, looked up, the tested form may be a part): as above

B1: hybridoma-derived 139H2 IgG (antibody, V domains shown)
VH: QVQLQQSGAELVKPGASVKLSCKASGYTFTNYYMYWVLQRPGQGLEWIGEINPSNGGTTFNEKFKNKATLTVDKSSSTAYMQLNSLTSEDSAVYYCTRSRYGNYVNYGMDYWGQGTSVTVSS
VL: DIVMSQSPSSLAVSVGEKVTMSCKSSQSLLYSNTQKNYLAWYQQKPGQSPKLLIYWASTRESGVPDRFTGSGSGTDFTLTISSVKAENLAVYYCQQYYRYPPTFGGGTKLELK
notes: as the heavy-chain variable domain of m1 (IGHV1-53); as the light-chain variable domain of m1 (IGKV8-30); mouse kappa light-chain constant region; Mouse IgG1, kappa; also called original hybridoma-derived 139H2; 139H2 WT; source: hybridoma culture supernatant (gift, NKI), purified (Protein G Sepharose); copies: 2 + 2
Turning to B1, the binding result in test [1], in test [2], in test [3] and in test [4] was “binds” throughout.

B2: recombinant 139H2 Fab fragment (Fab, V domains shown)
VH: QVQLQQSGAELVKPGASVKLSCKASGYTFTNYYMYWVLQRPGQGLEWIGEINPSNGGTTFNEKFKNKATLTVDKSSSTAYMQLNSLTSEDSAVYYCTRSRYGNYVNYGMDYWGQGTSVTVSS
VL: DIVMSQSPSSLAVSVGEKVTMSCKSSQSLLYSNTQKNYLAWYQQKPGQSPKLLIYWASTRESGVPDRFTGSGSGTDFTLTISSVKAENLAVYYCQQYYRYPPTFGGGTKLELK
notes: as the heavy-chain variable domain of m1 (IGHV1-53); mouse Ig gamma-1 (IGHG1) Fab constant region; as the light-chain variable domain of m1 (IGKV8-30); mouse kappa light-chain constant region, as in m1; also called monovalent Fab fragment; anti-MUC1 Fab; source: HEK293 cells (ImmunoPrecise Antibodies), culture supernatant, purified (HisTrap Excel, Superdex 200 SEC)
By Kd is commonly meant a measure of binding affinity in units of concentration. As to B2, the binding result in test [5] is “binds”. This molecule also yielded an equilibrium dissociation constant (Kd) in test [6] of 4.5 µM.

B3: recombinant (reverse-engineered) 139H2 IgG (antibody, V domains shown)
VH: QVQLQQSGAELVKPGASVKLSCKASGYTFTNYYMYWVLQRPGQGLEWIGEINPSNGGTTFNEKFKNKATLTVDKSSSTAYMQLNSLTSEDSAVYYCTRSRYGNYVNYGMDYWGQGTSVTVSS
VL: DIVMSQSPSSLAVSVGEKVTMSCKSSQSLLYSNTQKNYLAWYQQKPGQSPKLLIYWASTRESGVPDRFTGSGSGTDFTLTISSVKAENLAVYYCQQYYRYPPTFGGGTKLELK
notes: also in PDB 8P6I; standard mouse Ig gamma-1 (IGHG1) constant region, linker and Fc region, UniProt P01868.1; mouse kappa light-chain constant region (kappa light-chain backbone); Mouse IgG1, kappa; also called synthetic recombinant 139H2; recombinant 139H2; source: HEK293 cells (ImmunoPrecise Antibodies), culture supernatant, purified (HisTrap Excel); copies: 2 + 2
Consider B3, for which the binding result in test [1], in test [2], in test [3] and in test [4] was “binds” in each case.
